Measurements as given in patent US7867500B2, “Cofactor that modulates steroid receptor activities” (The United States of America as represented by the …, priority 2004, dated 2011).

How the values were obtained:
GR = molecular target: T1, GR (Rattus norvegicus, UniProt P06536); assay: Mammalian two-hybrid assay in CV-1 cells with VP16/GR; type: cell-based; settings: VP16/GR ± 1 μM Dex
T1 construct: plus VP16 fused to the indicated full length receptors; expressed in transfected cells; host or cells: CV-1
T1 sequence (P06536 1-795): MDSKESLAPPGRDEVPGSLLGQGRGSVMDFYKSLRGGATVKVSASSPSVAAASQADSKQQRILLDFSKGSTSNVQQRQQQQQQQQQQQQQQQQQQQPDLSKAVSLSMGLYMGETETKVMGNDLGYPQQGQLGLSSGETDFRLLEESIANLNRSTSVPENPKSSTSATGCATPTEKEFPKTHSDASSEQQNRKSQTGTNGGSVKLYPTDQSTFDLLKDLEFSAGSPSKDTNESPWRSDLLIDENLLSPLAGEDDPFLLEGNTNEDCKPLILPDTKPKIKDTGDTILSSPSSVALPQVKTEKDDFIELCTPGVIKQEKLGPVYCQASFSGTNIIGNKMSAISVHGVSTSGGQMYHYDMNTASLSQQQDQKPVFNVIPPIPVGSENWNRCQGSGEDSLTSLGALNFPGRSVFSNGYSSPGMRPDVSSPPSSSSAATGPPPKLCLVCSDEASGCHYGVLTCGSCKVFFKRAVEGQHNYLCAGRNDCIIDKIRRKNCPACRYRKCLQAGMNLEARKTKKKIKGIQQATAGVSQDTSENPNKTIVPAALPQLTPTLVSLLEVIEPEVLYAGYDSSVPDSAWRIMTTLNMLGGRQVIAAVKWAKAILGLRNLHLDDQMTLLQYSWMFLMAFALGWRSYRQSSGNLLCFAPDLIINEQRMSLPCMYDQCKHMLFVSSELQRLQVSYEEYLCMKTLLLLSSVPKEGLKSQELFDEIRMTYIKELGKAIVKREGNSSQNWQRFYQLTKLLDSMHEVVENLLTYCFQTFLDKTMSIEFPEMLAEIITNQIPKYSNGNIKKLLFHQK
Source text: FIGS. 6A and 6B illustrate the domains of STAMP that interact with TIF2.4 (FIG. 6A) and GR (FIG. 6B) in the mammalian two-hybrid assay. […] These CV-1 cells were also transfected with GAL fused to the indicated segments of STAMP along with the FRLuc reporter and Renilla control plasmids. After determining the relative luciferase activities as described in FIG. 2B and 2C, the average values±S.E.M. from 2-5 experiments were plotted. The average fold increase for VP16/TIF2.4 with GAL/STAMP(623-834) in FIG. 6A was 11.0±3.0 (SEM, n=5) above the VP16 control. The values in parentheses above the data bars in FIG. 6B indicate the fold increased interaction ±1 μM Dex.
These assays were conducted as described (He et al., 2002). In particular, the recommended procedure for the Mammalian Matchmaker two-hybrid assay kit (Clontech) was modified slightly by changing from a chloramphenicol acetyltransferase reporter to a Luciferase Reporter pFRLuc (Stratagene), which is under the control of five repeats of the upstream activating sequence for the binding of GAL4.

PPARγ2 = molecular target: T2, PPARγ2 (Homo sapiens, UniProt P37231); assay: Mammalian two-hybrid assay with VP16 full length receptor: PPARγ2; type: cell-based; settings: 1 μM roziglitazone
T2 construct: plus VP16 fused to the indicated full length receptors; expressed in transfected cells; host or cells: CV-1
T2 sequence (P37231 1-505): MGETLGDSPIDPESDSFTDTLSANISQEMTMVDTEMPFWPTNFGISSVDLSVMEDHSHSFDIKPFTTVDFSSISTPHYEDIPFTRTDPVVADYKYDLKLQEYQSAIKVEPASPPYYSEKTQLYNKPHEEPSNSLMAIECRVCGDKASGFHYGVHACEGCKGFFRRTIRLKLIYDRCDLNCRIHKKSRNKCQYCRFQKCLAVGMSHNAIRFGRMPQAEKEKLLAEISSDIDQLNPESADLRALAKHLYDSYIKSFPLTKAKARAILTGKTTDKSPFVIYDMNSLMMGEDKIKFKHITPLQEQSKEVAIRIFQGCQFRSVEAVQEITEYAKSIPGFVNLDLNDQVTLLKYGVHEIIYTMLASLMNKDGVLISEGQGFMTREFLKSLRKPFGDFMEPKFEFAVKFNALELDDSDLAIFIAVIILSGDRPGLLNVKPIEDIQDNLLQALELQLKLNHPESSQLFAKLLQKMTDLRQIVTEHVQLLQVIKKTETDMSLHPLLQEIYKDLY
Method: (§1) FIG. 6C1-3 illustrate the association of STAMP with assorted steroid/nuclear receptors, including glucocorticoid receptors (GRs), progesterone receptors (PRs), androgen receptors (ARs), estrogen receptors (ER α or β), PPARγ2 receptors, thyroid receptor beta (TR), and retinoid (α) receptors (RAR α or RXR α). Triplicate samples of CV-1 cells were transfected (as described for FIG. 6B) with GAL, or GAL fused to TIF2.4 or STAMP834C, plus VP16 fused to the indicated full length receptors and incubated with the appropriate steroid (1 μM Dex, 20 nM R5020, 1 nM R1881, 0.1 μM triiodothyronine, or 1 μM estradiol, roziglitazone, or 9-cis-retinoic acid). The average relative luciferase activities of 2-3 experiments±S.E.M. were then plotted. FIG. 6C1 illustrates the effects of STAMP association upon GR, PR and AR induced expression. FIG. 6C2 illustrates the effects of STAMP association upon ERα, ERβ and PPARγ2 induced expression. FIG. 6C3 illustrates the effects of STAMP association upon TR, RARα and RXRα induced expression.
(§2) These assays were conducted as described (He et al., 2002). […]

[1] = molecular target: T3, thyroid (TR) (β) receptor (Homo sapiens, UniProt P10828); assay: Mammalian two-hybrid assay with VP16 full length receptor: TRβ; type: cell-based; settings: 0.1 μM triiodothyronine
T3 construct: plus VP16 fused to the indicated full length receptors; expressed in transfected cells; host or cells: CV-1
T3 sequence (P10828 1-461): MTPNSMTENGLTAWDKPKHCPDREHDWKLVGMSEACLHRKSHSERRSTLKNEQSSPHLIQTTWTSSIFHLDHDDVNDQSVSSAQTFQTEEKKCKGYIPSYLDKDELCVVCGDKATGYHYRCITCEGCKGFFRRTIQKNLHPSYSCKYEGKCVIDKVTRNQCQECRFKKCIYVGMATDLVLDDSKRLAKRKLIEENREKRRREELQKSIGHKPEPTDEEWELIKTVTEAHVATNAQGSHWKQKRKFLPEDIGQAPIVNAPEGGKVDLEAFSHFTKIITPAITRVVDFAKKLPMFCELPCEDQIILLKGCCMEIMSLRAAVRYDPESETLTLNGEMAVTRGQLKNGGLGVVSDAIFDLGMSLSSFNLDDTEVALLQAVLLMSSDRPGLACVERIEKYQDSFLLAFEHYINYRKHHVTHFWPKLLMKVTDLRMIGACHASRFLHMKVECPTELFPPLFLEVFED
Method: as §1, §2

[2] = molecular target: T4, glucocorticoid receptor (GR) (Rattus norvegicus, UniProt P06536); assay: GR-mediated induction of GREtkLUC reporter, transient transfection of CV-1 cells
T4 sequence (P06536 1-795): T1 sequence (P06536 1-795)
Method: Triplicate samples of CV-1 cells were transiently transfected with GR (6 ng)±TIF2 (20 ng)±STAMP (160 ng) plasmids, GREtkLUC reporter, and Renilla control plasmid. […] FIG. 4B illustrates the fold changes in GR induction parameters by STAMP and TIF2. […] The fold-increase in each parameter was determined as follows: for EC50s, fold increase=[EC50]GR/[EC50]GR+factor; for partial agonist activity and fold Dex induction, fold increase=activityGR+factor/activityGR). The average fold increases were then plotted±S.E.M (n=4).
CV-1 cells were transiently transfected with GR (6 ng)±TIF2 (20 ng)±STAMP (160 ng) plasmids, GREtkLUC reporter, and Renilla control plasmid, and induced with ethanol± the indicated concentrations of Dex.
Tests were run to determine whether exogenous STAMP can modulate the EC50 of glucocorticoids and the partial agonist activity of antiglucocorticoids in the transient transfection assays where GR induced gene expression from a GREtkLUC reporter.

B1: STAMP834C: STAMP fragment amino acids 834-1277, receptor interaction domain (RID) (protein)
chain: GDHPETIMEEVKIKPPKQQQTTEIHSDKLSRFTTSAEKEAKLVYSNSSSGPTATLQKIPNTHLSSVTTSDLSPGPCHHSSLSQIPSAIPSMPHQPTILLNTVSASASPCLHPGAQNIPSPTGLPRCRSGSHTIGPFSSFQSAAHIYSQKLSRPSSAKAGSCYLNKHHSGIAKTQKEGEDASLYSKRYNQSMVTAELQRLAEKQAARQYSPSSHINLLTQQVTNLNLATGIINRSSASAPPTLRPIISPSGPTWSTQSDPQAPENHSSSPGSRSLQTGGFAWEGEVENNVYSQATGVVPQHKYHPTAGSYQLQFALQQLEQQKLQSRQLLDQSRARHQAIFGSQTLPNSNLWTMNNGAGCRISSATASGQKPTTLPQKVVPPPSSCASLVPKPPPNHEQVLRRATSQKASKGSSAEGQLNGLQSSLNPAASVPITSSTDPAHTKI
**Q.** Which results are given for B1?
**A.** interaction with GR (GR): largest agonist-induced changes; interaction with PPARγ2 (PPARγ2): lack of interaction; interaction with thyroid receptor β [1]: lack of interaction

B2: STAMP: SRC-1 and TIF2 Associated Modulatory Protein, 1277 amino acid human polypeptide, expressed from transfected plasmid (protein)
chain: MARDLEETASSSEDEEVISQEDHPCIMWTGGCRRIPVLVFHADAILTKDNNIRVIGERYHLSYKIVRTDSRLVRSILTAHGFHEVHPSSTDYNLMWTGSHLKPFLLRTLSEAQKVNHFPRSYELTRKDRLYKNIIRMQHTHGFKVFHILPQTFLLPAEYAEFCNSYSKDRGPWIVKPVASSRGRGVYLINNPNQISLEENILVSRYINNPLLIDDFKFDVRLYVLVTSYDPLVIYLYEEGLARFATVRYDQGAKNIRNQFMHLTNYSVNKKSGDYVSCDDPEVEDYGNKWSMSAMLRYLKQEGRDTTALMAHVEDLIIKTIISAELAIATACKTFVPHRSSCFELYGFDVLIDSTLKPWLLEVNLSPSLACDAPLDLKIKASMISDMFTVVGFVCQDPAQRASTRPIYPTFESSRRNPFQKPQRCRPLSASDAEMKNLVGSAREKGPGKLGGSVLGLSMEEIKVLRRVKEENDRRGGFIRIFPTSETWEIYGSYLEHKTSMNYMLATRLFQDRMTADGAPELKIESLNSKAKLHAALYERKLLSLEVRKRRRRSSRLRAMRPKYPVITQPAEMNVKTETESEEEEEVALDNEDEEQEASQEESAGFLRENQAKYTPSLTALVENTPKENSMKVREWNNKGGHCCKLETQELEPKFNLMQILQDNGNLSKMQARIAFSAYLQHVQIRLMKDSGGQTFSASWAAKEDEQMELVVRFLKRASNNLQHSLRMVLPSRRLALLERRRILAHQLGDFIIVYNKETEQMAEKKSKKKVEEEEEDGVNMENFQEFIRQASEAELEEVLTFYTQKNKSASVFLGTHSKISKNNNNYSDSGAKGDHPETIMEEVKIKPPKQQQTTEIHSDKLSRFTTSAEKEAKLVYSNSSSGPTATLQKIPNTHLSSVTTSDLSPGPCHHSSLSQIPSAIPSMPHQPTILLNTVSASASPCLHPGAQNIPSPTGLPRCRSGSHTIGPFSSFQSAAHIYSQKLSRPSSAKAGSCYLNKHHSGIAKTQKEGEDASLYSKRYNQSMVTAELQRLAEKQAARQYSPSSHINLLTQQVTNLNLATGIINRSSASAPPTLRPIISPSGPTWSTQSDPQAPENHSSSPGSRSLQTGGFAWEGEVENNVYSQATGVVPQHKYHPTAGSYQLQFALQQLEQQKLQSRQLLDQSRARHQAIFGSQTLPNSNLWTMNNGAGCRISSATASGQKPTTLPQKVVPPPSSCASLVPKPPPNHEQVLRRATSQKASKGSSAEGQLNGLQSSLNPAASVPITSSTDPAHTKI
**Q.** For B2, which “increase in the partial agonist activity of the antagonist Dex-Mes” value ([2]; STAMP alone, no exogenous coactivators, low GR, 1 μM Dex-Mes, S.E.M., n=6, P=0.023) is on record?
**A.** The value was 1.16±0.05 fold.

**Q.** What about the “shift in the dose-response curve to lower steroid concentrations” value ([2]; STAMP alone, no exogenous coactivators, low GR, Dex, S.E.M., n=6, P=0.0074) of the same molecule?
**A.** Its value is 1.54±0.12 fold.

**Q.** And the “fold induction by 1 μM Dex, fold increase” value ([2]; STAMP alone, S.E.M., n=6)?
**A.** Its value is 0.93±0.08 fold.

**Q.** What about the “total amount of gene product induced by 1 μM Dex, fold increase” value ([2]; STAMP alone, S.E.M., n=6) of the same molecule?
**A.** The value was 1.26±0.05 fold.

**Q.** What about the “fold induction (above basal activity) with 1 μM Dex” value ([2]; both with and without added TIF2 (FIG. 4B)) of the same molecule?
**A.** The value was “increases the fold induction”.

B3: 6-6CL1: STAMP fragment amino acids 623-834, coactivator interaction domain (CID) (protein)
chain: ENTPKENSMKVREWNNKGGHCCKLETQELEPKFNLMQILQDNGNLSKMQARIAFSAYLQHVQIRLMKDSGGQTFSASWAAKEDEQMELVVRFLKRASNNLQHSLRMVLPSRRLALLERRRILAHQLGDFIIVYNKETEQMAEKKSKKKVEEEEEDGVNMENFQEFIRQASEAELEEVLTFYTQKNKSASVFLGTHSKISKNNNNYSDSGAKG
**Q.** With B3 as the molecule, how does the “interaction with GR” value (GR) read?
**A.** Its value is “relative inactivity”.
